Results as given in patent CN115433274A (BEIJING KENUO XINCHENG TECH CO LTD, dated 2022).

B1: 食蟹猴SA重组蛋白 (other)
chain: DTHKSEVAHRFKDLGEEHFKGLVLVAFSQYLQQCPFEEHVKLVNEVTEFAKTCVADESAENCDKSLHTLFGDKLCTVATLRETYGEMADCCAKQEPERNECFLQHKDDNPNLPPLVRPEVDVMCTAFHDNEATFLKKYLYEVARRHPYFYAPELLFFAARYKAAFAECCQAADKAACLLPKLDELRDEGKASSAKQRLKCASLQKFGDRAFKAWAVARLSQKFPKAEFAEVSKLVTDLTKVHTECCHGDLLECADDRADLAKYMCENQDSISSKLKECCDKPLLEKSHCLAEVENDEMPADLPSLAADYVESKDVCKNYAEAKDVFLGMFLYEYARRHPDYSVMLLLRLAKAYEATLEKCCAAADPHECYAKVFDEFQPLVEEPQNLVKQNCELFEQLGEYKFQNALLVRYTKKVPQVSTPTLVEVSRNLGKVGAKCCKLPEAKRMPCAEDYLSVVLNRLCVLHEKTPVSEKVTKCCTESLVNRRPCFSALELDEAYVPKAFNAETFTFHADMCTLSEKEKQVKKQTALVELVKHKPKATKEQLKGVMDNFAAFVEKCCKADDKEACFAEEGPKFVAASQAALA
notes: Bought product; also called cyno SA; Cynomolgus serum albumin
B2: 噬菌体展示的纳米抗体2MG6 (VHH)
VHH: QVQLQESGGGLVQAGGSLRLSCAASGSTYPTAYIAWFRQAPGKEREGVAGIYTVGGSTFYTDSVKGRFTISRDNAKNTVYLLMNSLKPEDTAMYFCAAGRTDTAKLRDPRSFGYWGQGTQVTVSS
notes: the phage fusion part is not described; also called 克隆2MG6

What was measured:
[1] = target: T1, 对照抗体ALB8 (ALB8重组蛋白, VHH-hFc) (human); test: ELISA, albumin coated at 1 μg/mL, HRP-anti-human Fc
T1 construct: Control anti-HSA nanobody expressed as fusion with human Fc; also called 对照纳米抗体ALB8
T1 sequence (chain, as listed by the source limits assumed): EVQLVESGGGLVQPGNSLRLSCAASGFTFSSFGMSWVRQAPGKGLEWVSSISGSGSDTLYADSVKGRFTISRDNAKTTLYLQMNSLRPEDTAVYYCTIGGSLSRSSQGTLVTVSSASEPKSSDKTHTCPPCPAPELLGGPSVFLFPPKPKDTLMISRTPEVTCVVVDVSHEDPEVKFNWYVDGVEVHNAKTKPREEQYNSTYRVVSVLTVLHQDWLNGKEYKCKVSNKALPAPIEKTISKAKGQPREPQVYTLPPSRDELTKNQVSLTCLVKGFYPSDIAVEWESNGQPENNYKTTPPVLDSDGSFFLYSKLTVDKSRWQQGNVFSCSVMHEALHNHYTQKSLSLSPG

牛血清白蛋白(BSA) = target: T2, 牛血清白蛋白(BSA) (bovine, UniProt P02769 25-607); test: phage ELISA, phage supernatant on BSA-coated plate
T2 construct: also called Bovine serum albumin

食蟹猴SA重组蛋白 = target: B1; test: phage ELISA, phage supernatant on cyno SA-coated plate

| Binder | binding result [1] | binding result (牛血清白蛋白(BSA)) | binding result (食蟹猴SA重组蛋白) |
| --- | --- | --- | --- |
| B1 | binds | – | – |
| B2 | – | no binding | binds |
